Measurements: the supplement of paper PMC10126150
± gives the standard deviation of the averaged measurements.

Tested on: ATP
Assay: switch fluorescence ratio, 500 uM ATP over buffer (Cy3 cluster intensity, sum of 5 cycles each) (fold (ratio)); higher = stronger signal-on switching upon ATP binding; sequences stand for … in TCGTCGGCAGCGTCAGATGTGTATAAGAGACAGTTTTTTTTTTTTTTTTTTTTTTTTT…TC
Conditions: aptamer strand: ATP DNA aptamer (quencher-CACCTGGGGGAGTATTGCGGAGGAAGG + anchor), 100 nM annealed; ATP concentration: 500 uM
Method in brief: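 Cy3-labelled switching-strand clusters on a modified Illumina MiSeq flow-cell were annealed to 100 nM quencher-labelled ATP aptamer, imaged in selection buffer, then imaged after 15 min with 500 uM ATP at 22 °C. Five buffer/ATP cycles ran, with NaOH stripping and re-annealing between them. The fluorescence ratio is summed target-cycle over summed buffer-cycle Cy3 intensity per cluster, averaged per switch-domain sequence. Clusters outside 100-1000 RFU were excluded.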
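Further: ATP exposure 15 min at 22 °C before imaging.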

Sequence	switch fluorescence ratio
AAAATAGTGT	1.013 ± 0.01
AGAATTAGTG	0.953 ± 0.1
TCCATGATTG	0.973 ± 0.037
AGGGGCAGGG	0.932 ± 0.081
CGGATTTCAG	0.951 ± 0.03
GAGGGGTGGG	1.04 ± 0.076
CAAGTACGGA	1.1 ± 0.17
GGATCTTTAT	0.9932 ± 0.0096
ACTGGGATGT	1.02 ± 0.0043
ACCCGGCTTC	1.024 ± 0.0077
TAAAAAAAGA	0.999 ± 0.046
CGGGTAGGGC	1.01 ± 0.032
ATAAACCGGG	1.02 ± 0.043
AGCAGGAGCC	1.061 ± 0.0063
GAGCTCACGG	1.02 ± 0.017
CTGGAAGGTG	1.811 ± 0.017
TCGGGTGCGA	1.04 ± 0.011
CCGTAATTGA	2.75 ± 0.16
CAGGGGGCTA	1.01 ± 0.067
AAGGGCTGCG	0.98 ± 0.1
AGTTGGAATT	0.979 ± 0.012
ATATGGCACT	1.008 ± 0.0034
TTGTAAAATG	0.996 ± 0.013
ACGATTATTC	1.07 ± 0.039
GTTTTACCGG	1 ± 0.022
ATATGCGTCG	0.95 ± 0.027

Sequence	switch fluorescence ratio
CGGGGGCGCG	1.02 ± 0.021
TAGCCATTGG	1.05 ± 0.081
CACTAATAAT	1.033 ± 0.0029
AAGGTCTTAG	0.968 ± 0.039
AGATTATTGA	0.943 ± 0.031
ATCGTGTGAG	1.02 ± 0.015
CGAGGTTCTG	0.97 ± 0.039
ATGGGAGAAG	0.95776 ± 0.00073
TGCTGGGGAT	1.009 ± 0.0015
GTAAGATATT	0.9994 ± 0.0098
ACCTAGCGCA	1.33 ± 0.045
AGGTATTATC	0.968 ± 0.014
CCGTATGTGC	1.751 ± 0.0087
GAGTAACTGG	0.983 ± 0.027
ATGGGGAGAG	1.02 ± 0.028
CGGATCGACT	0.977 ± 0.02
TCGTCCGGTA	1.29 ± 0.04
CCTTAAGACT	1.07 ± 0.028
TTTTTTATAT	0.987 ± 0.025
GGTAGGTGGC	0.952 ± 0.027
TTAGGATGGC	1.2 ± 0.28
GGGGGAAACG	0.989 ± 0.031
GATTCATTAT	0.988 ± 0.011
AAGTTTTTCG	1.01 ± 0.014
TGCTGTATTC	0.967 ± 0.041
AGGCGAGGAT	1.012 ± 0.0075

Sequence	switch fluorescence ratio
TTGGCCCGGG	1.01 ± 0.059
TAGATATTTA	1.01 ± 0.0087
TTTTGTTTGT	1.01 ± 0.037
TATATGCTGT	0.98 ± 0.011
ATATATTAAA	0.981 ± 0.03
AACGAGGAGT	1.01 ± 0.0058
CCGATTGGTC	1.117 ± 0.0062
TTTAATTCT	0.989 ± 0.022
CGGAATGTAT	0.992 ± 0.04
AGGGTTTTTT	1.02 ± 0.039
AGCAGGTGTG	1.18 ± 0.048
CTGGGGTATG	0.985 ± 0.028
ATATCCGTCA	1.05 ± 0.051
AGTGTTCGCT	0.9732 ± 0.0052
TTTCTAATTT	1.02 ± 0.015
AGGAGTGTCA	0.965 ± 0.013
TTTAGCGGGG	1.01 ± 0.016
AGGGTGCGGG	1.01 ± 0.018
GGAGAGGACG	1.07 ± 0.09
GGTCGGGTTC	0.985 ± 0.015
CCCACAGGAC	1.73 ± 0.14
AGGTTGGGGG	0.981 ± 0.013
GGCTGGGCGA	0.983 ± 0.02
GGGATCAGTG	0.995 ± 0.03
AATAAGAAGG	0.999 ± 0.013
